Data: PMC10786891, “Massively parallel profiling of RNA-targeting CRISPR-Cas13d”
Positions count from the first letter of the chain named. In names and notes the source's numbering stands.

T1: EsCas13d, nuclease-dead (Eubacterium siraeum, UniProt B0MS50, R295A;H300A;R849A;H854A)
T1 sequence: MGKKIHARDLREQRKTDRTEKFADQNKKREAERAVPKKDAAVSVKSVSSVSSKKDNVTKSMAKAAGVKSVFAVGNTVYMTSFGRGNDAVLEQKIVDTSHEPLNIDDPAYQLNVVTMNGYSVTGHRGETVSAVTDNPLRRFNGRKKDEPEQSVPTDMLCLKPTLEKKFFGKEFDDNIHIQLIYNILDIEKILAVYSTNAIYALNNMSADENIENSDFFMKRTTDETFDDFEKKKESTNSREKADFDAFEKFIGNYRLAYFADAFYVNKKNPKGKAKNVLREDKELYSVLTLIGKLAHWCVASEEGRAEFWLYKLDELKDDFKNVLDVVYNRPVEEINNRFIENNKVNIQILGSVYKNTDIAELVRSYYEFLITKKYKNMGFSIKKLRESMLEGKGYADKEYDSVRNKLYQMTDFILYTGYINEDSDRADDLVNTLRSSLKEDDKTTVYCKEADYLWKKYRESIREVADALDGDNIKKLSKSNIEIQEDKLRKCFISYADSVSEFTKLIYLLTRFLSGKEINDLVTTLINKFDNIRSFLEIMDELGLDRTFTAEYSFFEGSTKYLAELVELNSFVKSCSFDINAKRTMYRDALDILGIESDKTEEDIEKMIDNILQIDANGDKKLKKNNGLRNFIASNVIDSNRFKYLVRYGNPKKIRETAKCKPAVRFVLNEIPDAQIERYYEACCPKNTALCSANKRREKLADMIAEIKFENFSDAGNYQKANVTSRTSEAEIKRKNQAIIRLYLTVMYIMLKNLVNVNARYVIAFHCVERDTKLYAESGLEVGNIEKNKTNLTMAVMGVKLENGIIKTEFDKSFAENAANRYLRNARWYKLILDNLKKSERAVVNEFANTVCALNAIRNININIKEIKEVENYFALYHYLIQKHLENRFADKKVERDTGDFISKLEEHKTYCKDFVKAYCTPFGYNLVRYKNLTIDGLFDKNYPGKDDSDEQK

B1: target 1 insU 3' of 22,insU 3' of 15 (mixed)
RNA 1: CACCCGUGCAAAAAUGCAGGGGUCUAAAACUGAGCGGAUAACCUCUCUAUGG
RNA 2: GGGAAUGGAUCCACAUCUACGAAUUCGUACUCAUAGAGUAGGUUAUCCGCUCACCGAGAUCGGAAGAGCACACGU
B2: target 1 insC 3' of 15,insA 3' of 13 (mixed)
RNA 1: B1 RNA 1
RNA 2: GGGAAUGGAUCCACAUCUACGAAUUCGUACCAUAGAGCAGAGUUAUCCGCUCACCGAGAUCGGAAGAGCACACGU
B3: target 1 insC 3' of 18,insG 3' of 10 (mixed)
RNA 1: B1 RNA 1
RNA 2: B2 RNA 2 with G35C, A36G, G37A, C38G, A41G, G42U, U44G
B4: target 1 insA 3' of 4,insC 3' of 3 (mixed)
RNA 1: B1 RNA 1
RNA 2: GGGAAUGGAUCCACAUCUACGAAUUCGUACCAUAGAGAGGUUAUCCGCAUCCACCGAGAUCGGAAGAGCACACGU
B5: target 1 G13A,A16G (mixed)
RNA 1: B1 RNA 1
RNA 2: GGGAAUGGAUCCACAUCUACGAAUUCGUACCAUAGGGAAGUUAUCCGCUCACCGAGAUCGGAAGAGCACACGU
B6: target 1 G5C,C7G (mixed)
RNA 1: B1 RNA 1
RNA 2: B5 RNA 2 with G36A, A39G, C45G, G47C
B7: target 1 A1U,U10A (mixed)
RNA 1: B1 RNA 1
RNA 2: B5 RNA 2 with G36A, A39G, U42A, A51U
B8: target 1 U3A,G12U (mixed)
RNA 1: B1 RNA 1
RNA 2: B5 RNA 2 with G36A, A39G, G40U, U49A
B9: target 1 insC 3' of 22,insU 3' of 2 (mixed)
RNA 1: B1 RNA 1
RNA 2: GGGAAUGGAUCCACAUCUACGAAUUCGUACCCAUAGAGAGGUUAUCCGCUCUACCGAGAUCGGAAGAGCACACGU
B10: target 1 C6G,A14C (mixed)
RNA 1: B1 RNA 1
RNA 2: B5 RNA 2 with G36A, A38C, A39G, C46G
B11: target 1 insA 3' of 7,insA 3' of 6 (mixed)
RNA 1: B1 RNA 1
RNA 2: B4 RNA 2 with C46A, G47C, C48A, A49G, U50C, C51U
B12: target 1 insU 3' of 7,insA 3' of 4 (mixed)
RNA 1: B1 RNA 1
RNA 2: B4 RNA 2 with C46U, G47C, C48G, A49C, U50A, C51U
B13: target 1 insG 3' of 11,insU 3' of 5 (mixed)
RNA 1: B1 RNA 1
RNA 2: B2 RNA 2 with C38A, A39G, A41U, U44A, A45U, U46C, C48G, G49U
B14: target 1 complement block 2-6 (mixed)
RNA 1: B1 RNA 1
RNA 2: B5 RNA 2 with G36A, A39G, C46G, G47C, C48G, U49A, C50G
B15: target 1 U10A,U19A (mixed)
RNA 1: B1 RNA 1
RNA 2: B5 RNA 2 with U33A, G36A, A39G, U42A

Biological target: T1, EsCas13d, nuclease-dead
Assay: crRNA (strand 1, pre-loaded); Mg2+; 40 mM Tris-HCl pH 7.5, 150 mM NaCl, 6 mM MgCl2, 1 mM DTT, 0.1% Tween-20, 0.2 mg/ml BSA; 25 C; 10 min per concentration, then washed
Conditions: tags: His6-TwinStrep-SUMO cleaved; N-terminal SNAP kept (SNAP-Surface 488); label: 3' end held by stalled T7 RNA polymerase

Binder	Kd
B1	34 ± 6 nM
B2	27.6 ± 2.8 nM
B3	~70 nM
B4	19.9 ± 2.5 nM
B5	30 ± 4 nM
B6	15.8 ± 0.9 nM
B7	8.8 ± 0.4 nM
B8	7.58 ± 0.34 nM
B9	23 ± 4 nM
B10	13.4 ± 0.4 nM
B11	7.46 ± 0.33 nM
B12	9.7 ± 0.7 nM
B13	39 ± 5 nM
B14	12.3 ± 0.5 nM
B15	48 ± 7 nM
